From patent US20260028403A1 (Zymeworks, published 2026) come the findings set out here.

By Kd is commonly meant the free concentration of one partner at which half of the binding sites on the other are occupied at equilibrium, for simple one-to-one binding. What is called koff is the first-order rate constant of dissociation. The term kon denotes a measure of how fast the partners come together.

Substitutions are numbered along the chain they refer to. In names and notes the source's numbering stands.

The labels stand for the following.
B1: v37683 (trispecific antibody, human IgG1, kappa, L234A L235A)
heavy 1: not shown
heavy 2: QVQLVESGGGLVQPGGSLRLSCSVSGIDLSSNPMIWVRQAPGKGLQYIGIIDTDGSTYYADWAKGRFTISKDSTTVYLQINSPRAEDTAVYYCARRLHGSSNGYYDDLWGQGTLVTVSSGGGGSGGGGSGGGGSGGGGSDGQMTQSPSSVSASVGDRVTITCQASQSIYSYLSWYQQKPGQRPKLLIYKASTLASGVPSRFSGSGSGTDFTLTISSVQPEDFATYYCQQGYTVTNVDKNTFGGGTKVEIKAAEPKSSDKTHTCPPCPAPEAAGGPSVFLFPPKPKDTLMISRTPEVTCVVVSVSHEDPEVKFNWYVDGVEVHNAKTKPREEQYNSTYRVVSVLTVLHQDWLNGKEYKCKVSNKALPAPIEKTISKAKGQPREPQVYVLPPSRDELTKNQVSLLCLVKGFYPSDIAVEWESNGQPENNYLTWPPVLDSDGSFFLYSKLTVDKSRWQQGNVFSCSVMHEALHNHYTQKSLSLSPG
light: DIQMTQSPSSLSASVGDRVTITCRASESVEYYVTSLMQWYQQKPGKAPKLLIYAASNVDSGVPSRFSGSGSGTDFTLTISSLQPEDIATYYCQQSRKVPFTFGGGTKVEIKRTVAAPSVFIFPPSDEQLKSGTASVVCLLNNFYPREAKVQWKVDNALQSGNSQESVTEQDSKDSTYSLSSTLTLSKADYEKHKVYACEVTHQGLSSPVTKSFNRGEC
notes: also called v37638 format, CD28 VH P1058A
B2: v37684 (trispecific antibody, human IgG1, kappa, L234A L235A)
heavy 1: not shown
heavy 2: B1 heavy 2
light: B1 light
notes: also called v37638 format, CD28 VH G1064S
B3: v37686 (trispecific antibody, human IgG1, kappa, L234A L235A)
heavy 1: not shown
heavy 2: B1 heavy 2
light: B1 light with D59E
notes: also called v37638 format, CD28 VL D1068E
B4: v37688 (trispecific antibody, human IgG1, kappa, L234A L235A)
heavy 1: not shown
heavy 2: B1 heavy 2
light: B1 light
notes: also called v37638 format, CD28 VH Y1110S
B5: v37689 (trispecific antibody, human IgG1, kappa, L234A L235A)
heavy 1: not shown
heavy 2: B1 heavy 2
light: B1 light
notes: also called v37638 format, CD28 VH N1111aA
B6: v37685 (trispecific antibody, human IgG1, kappa, L234A L235A)
heavy 1: not shown
heavy 2: B1 heavy 2
light: B1 light with V33G
notes: also called v37638 format, CD28 VL V1035G
B7: v37692 (trispecific antibody, human IgG1, kappa, L234A L235A)
heavy 1: not shown
heavy 2: B1 heavy 2
light: B1 light
notes: also called v37638 format, CD28 VH Y1113S
B8: v37691 (trispecific antibody, human IgG1, kappa, L234A L235A)
heavy 1: not shown
heavy 2: B1 heavy 2
light: B1 light
notes: also called v37638 format, CD28 VH L1112aN
B9: v37687 (trispecific antibody, human IgG1, kappa, L234A L235A)
heavy 1: not shown
heavy 2: B1 heavy 2
light: B1 light
notes: also called v37638 format, CD28 VH E1080K
B10: v37641 (trispecific antibody, human IgG1, kappa, L234A L235A)
heavy 1: QVQLVESGGGLVQPGGSLRLSCSVSGIDLSSNPMIWVRQAPGKGLQYIGIIDTDGSTYYADWAKGRFTISKDSTTVYLQINSPRAEDTAVYYCARRLHGSSNGYYDDLWGQGTLVTVSSGGGGSGGGGSGGGGSGGGGSDGQMTQSPSSVSASVGDRVTITCQASQSIYSYLSWYQQKPGQRPKLLIYKASTLASGVPSRFSGSGSGTDFTLTISSVQPEDFATYYCQQGYTVTNVDKNTFGGGTKVEIKGGGGSGQVQLQESGPGLVKPSETLSLTCAVSGFSLTSYGVHWIRQPPGKGLEWLGVIWPGGGTNFNSALMSRLTISEDTSKNQVSLKLSSVTAADTAVYYCARDRAYGNYLYAMDYWGQGTLVTVSSASTKGPSVFPLAPSSKSTSGGTAALGCLVKDYFPEPVTVSWNSGALTSGVHTFPAVLQSSGLYSLSSVVTVPSSSLGTQTYICNVNHKPSNTKVDKKVEPKSCDKTHTCPPCPAPEAAGGPSVFLFPPKPKDTLMISRTPEVTCVVVSVSHEDPEVKFNWYVDGVEVHNAKTKPREEQYNSTYRVVSVLTVLHQDWLNGKEYKCKVSNKALPAPIEKTISKAKGQPREPQVYVYPPSRDELTKNQVSLTCLVKGFYPSDIAVEWESNGQPENNYKTTPPVLDSDGSFALVSKLTVDKSRWQQGNVFSCSVMHEALHNHYTQKSLSLSPGGGGGSGNFMLTQPHSVSESPGKTVTISCKRNTGNIGSNYVNWYQQHEGSSPTTIIYRNDKRPDGVSDRFSGSIDRSSKSASLTISNLKTEDEADYFCQSYSSGFIFGGGTKLTVLGGGGSGGGGSGGGGSGGGGSEVQLVESGGGLVQPGGSLRLSCAASGVTFNYYGMSWIRQAPGKGLEWVASITSSGGRIYYPDSVKGRFTISRENTQKTLYLQMNSLRAEDTAVYYCTLDGRDGWVAYWGQGTLVTVSS
heavy 2: EPKSSDKTHTCPPCPAPEAAGGPSVFLFPPKPKDTLMISRTPEVTCVVVSVSHEDPEVKFNWYVDGVEVHNAKTKPREEQYNSTYRVVSVLTVLHQDWLNGKEYKCKVSNKALPAPIEKTISKAKGQPREPQVYVLPPSRDELTKNQVSLLCLVKGFYPSDIAVEWESNGQPENNYLTWPPVLDSDGSFFLYSKLTVDKSRWQQGNVFSCSVMHEALHNHYTQKSLSLSPG
light: B1 light
notes: second heavy chain is Fc only; Het Fc, FcKO; also called Cldn18.2xCD28xCD3 trispecific

In one experiment the target is T1, CD28 on primary human T cells (human, UniProt P10747 19-220). Nature of the experiment: cell-based or functional assay.
Consider B1, for which the “IC50, T cell-dependent cytotoxicity on SNU 601” value (shortened to “IC50 … on SNU 601”) was 0.25 pM and the “Maximum Killing (%), SNU 601” value was 88.6%.
For B2 the same measures were 0.34 pM and 89.3%.
As to B3, the “IC50 … on SNU 601” value stood at 0.09 pM and the “Maximum Killing (%), SNU 601” value stood at 88.5%.
In the same order, the values of B4 are 0.18 pM and 87.8%.
For B5 the same measures were 0.12 pM and 93.4%.
For B6 the same measures were 0.81 pM and 88.7%.
For the molecule B7, the “IC50 … on SNU 601” value came out at 0.63 pM and the “Maximum Killing (%), SNU 601” value came out at 91.5%.
For B8 the same measures were 0.08 pM and 91%.
For B9 the same measures were 0.1 pM and 88.5%.

In the next experiment the target is T2, Recombinant human/cynomolgus/rhesus macaque CD28 mouse IgG2a Fc fusion protein (Acro Biosystems) (human/cynomolgus/rhesus macaque, UniProt P10747 19-152).
T2 construct: bought; also called huCD28
The experiment is described as follows: SPR Biacore T200, CD28-mIgG2a Fc on CM5, construct injected, 1:1 model.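 Note: fc fusion captured by amine coupling, run at 25 °C in HEPES buffer pH 7.4, association 140-500 s then dissociation 600-1200 s, values averaged over three independent runs.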 On the technique in general: In SPR one partner is held on a chip, and binding of the other changes the refractive index at the surface.
Consider B10, for which the Kd is 31.8 nM, the koff came out at 0.00206 s⁻¹ and the kon was determined as 66500 M⁻¹ s⁻¹.

A further experiment deals with T2, Recombinant human/cynomolgus/rhesus …. The experiment is described as follows: SPR, in-format anti-CD28 variants, huCD28.
Take B1: the “Fold-change from WT” value worked out at 2.2 fold, the Kd was found to be 48.6 nM, the koff was 0.00466 s⁻¹ and the kon is 95800 M⁻¹ s⁻¹.
In the same order, the values of B2 are 6.4 fold, 143 nM, 0.0113 s⁻¹ and 80600 M⁻¹ s⁻¹.
With B3, the “Fold-change from WT” value was 1.3 fold, the Kd was determined as 28.1 nM, the koff came to 0.00252 s⁻¹ and the kon is 89300 M⁻¹ s⁻¹.
For B4 the same measures were 1.2 fold, 25.8 nM, 0.00253 s⁻¹ and 97300 M⁻¹ s⁻¹.
In the same order, the values of B5 are 10.8 fold, 239 nM, 0.0211 s⁻¹ and 89600 M⁻¹ s⁻¹.
With B6, the “Fold-change from WT” value stood at 28.4 fold, the Kd came out at 631 nM, the koff stood at 0.029 s⁻¹ and the kon came to 67900 M⁻¹ s⁻¹.
In the same order, the values of B7 are 95.1 fold, 2110 nM, 0.0613 s⁻¹ and 32200 M⁻¹ s⁻¹.
In the same order, the values of B8 are 4.9 fold, 109 nM, 0.0107 s⁻¹ and 98600 M⁻¹ s⁻¹.
For B9 the same measures were 2.1 fold, 47 nM, 0.00475 s⁻¹ and 101000 M⁻¹ s⁻¹.

Another experiment deals with T3, Recombinant human CD3 epsilon/delta heterodimer, his tag protein (Acro Biosystems) (human, UniProt P07766 23-126; P04234 22-105).
T3 construct: bought
The experiment is described as follows: SPR Biacore T200, CD3 e/d-his on CM5, construct injected, 1:1 model.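 Note: measured at 25 °C in HEPES-buffered saline with EDTA and Tween 20 at pH 7.4, values are means of three independent runs.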
With B10, the Kd worked out at 225 nM, the koff amounted to 0.0134 s⁻¹ and the kon was found to be 60800 M⁻¹ s⁻¹.

Another experiment deals with T1, CD28 on primary human T cells. Nature of the experiment: cell-based or functional assay. The source holds these as a separate data set.
For the molecule B1, the “IL-2 maximum cytokine, T cells alone” value turned out to be 82.9 pg/mL; the “IL-2 maximum cytokine, T cells with SNU 601 cells” value was determined as 4030 pg/mL; the “TNFa maximum cytokine, T cells alone” value was found to be 25 pg/mL; the “TNFa maximum cytokine, T cells with SNU 601 cells” value was 513 pg/mL.
In the case of B2, the “IL-2 maximum cytokine, T cells alone” value was 293 pg/mL; the “IL-2 maximum cytokine, T cells with SNU 601 cells” value turned out to be 3430 pg/mL; the “TNFa maximum cytokine, T cells alone” value worked out at 56.2 pg/mL; the “TNFa maximum cytokine, T cells with SNU 601 cells” value is 516 pg/mL.
On to B3, for which the “IL-2 maximum cytokine, T cells alone” value turned out to be 388 pg/mL; the “IL-2 maximum cytokine, T cells with SNU 601 cells” value turned out to be 4180 pg/mL; the “TNFa maximum cytokine, T cells alone” value was determined as 41 pg/mL; the “TNFa maximum cytokine, T cells with SNU 601 cells” value is 613 pg/mL.
B4: the “IL-2 maximum cytokine, T cells alone” value was 279 pg/mL; the “IL-2 maximum cytokine, T cells with SNU 601 cells” value worked out at 3780 pg/mL; the “TNFa maximum cytokine, T cells alone” value amounted to 39.6 pg/mL; the “TNFa maximum cytokine, T cells with SNU 601 cells” value turned out to be 514 pg/mL.
In the case of B5, the “IL-2 maximum cytokine, T cells alone” value turned out to be 677 pg/mL; the “IL-2 maximum cytokine, T cells with SNU 601 cells” value is 3210 pg/mL; the “TNFa maximum cytokine, T cells alone” value was determined as 58.9 pg/mL; the “TNFa maximum cytokine, T cells with SNU 601 cells” value turned out to be 543 pg/mL.
Turning to B6, the “IL-2 maximum cytokine, T cells alone” value worked out at 190 pg/mL; the “IL-2 maximum cytokine, T cells with SNU 601 cells” value amounted to 3400 pg/mL; the “TNFa maximum cytokine, T cells alone” value was 25 pg/mL; the “TNFa maximum cytokine, T cells with SNU 601 cells” value stood at 409 pg/mL.
Take B7: the “IL-2 maximum cytokine, T cells alone” value stood at 120 pg/mL; the “IL-2 maximum cytokine, T cells with SNU 601 cells” value stood at 2890 pg/mL; the “TNFa maximum cytokine, T cells alone” value was determined as 20.2 pg/mL; the “TNFa maximum cytokine, T cells with SNU 601 cells” value was found to be 476 pg/mL.
On to B8, for which the “IL-2 maximum cytokine, T cells alone” value is 185 pg/mL; the “IL-2 maximum cytokine, T cells with SNU 601 cells” value came to 3360 pg/mL; the “TNFa maximum cytokine, T cells alone” value came out at 33.6 pg/mL; the “TNFa maximum cytokine, T cells with SNU 601 cells” value worked out at 473 pg/mL.
In the same order, the values of B9 are 170 pg/mL, 4140 pg/mL, 21.7 pg/mL and 412 pg/mL.
